{"source": "paper PMC12159149", "target": "geCHO.sE2.7 (secreted HCV E2 ectodomain produced in glycoengineered CHO line 7) (hepatitis C virus, genotype 1a (H77C))", "test": "ELISA"}
{"substance": "CD81 large extracellular loop (LEL)-Fc fusion", "values": [{"measurement": "OD at 450 nm at the highest concentration of CD81-LEL-Fc (2.8 μM)", "value": 0.4, "unit": "OD"}]}
